# Measurements from the supplement of paper PMC10126150.
# ± gives the standard deviation of the averaged measurements.
# Tested on: ATP
# Test: switch fluorescence ratio, 500 uM ATP over buffer (Cy3 cluster intensity, sum of 5 cycles each) (fold (ratio)); higher = stronger signal-on switching upon ATP binding; sequences stand for … in TCGTCGGCAGCGTCAGATGTGTATAAGAGACAGTTTTTTTTTTTTTTTTTTTTTTTTT…TC
# Details: aptamer strand: ATP DNA aptamer (quencher-CACCTGGGGGAGTATTGCGGAGGAAGG + anchor), 100 nM annealed; ATP concentration: 500 uM
# Outline: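 Clusters with intensities outside 100-1000 RFU were excluded. The remaining Cy3-labelled switching-strand clusters on a modified Illumina MiSeq flow-cell had been annealed to 100 nM quencher-labelled ATP aptamer and imaged in selection buffer, then after 15 min with 500 uM ATP at 22 °C, for five cycles separated by NaOH stripping and re-annealing. The fluorescence ratio, averaged per switch-domain sequence, is each cluster's summed target-cycle Cy3 intensity over its summed buffer-cycle Cy3 intensity.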
# 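Note: ATP exposure 15 min at 22 °C before imaging.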
row,Sequence,switch fluorescence ratio
1,AATATTGATG,1.02 ± 0.044
2,AAAAGGGCAG,0.986 ± 0.031
3,ATTTGGGGAT,1.02 ± 0.03
4,TAAGCCGCGT,1.008 ± 0.0083
5,ATTAAATAGC,1.03 ± 0.043
6,GGTTTTGGGG,1.01 ± 0.026
7,GACAACATTT,0.9967 ± 0.004
8,AGAAAGCCGG,0.989 ± 0.014
9,ACGGTTTGGC,0.939 ± 0.063
10,ATTAATCTTG,1.03 ± 0.046
11,ACTGAGACGA,1.07 ± 0.044
12,CGTGTGAGGT,0.9972 ± 0.008
13,AGTCGTTGGA,0.96555 ± 0.00011
14,TATATTTCGG,0.995 ± 0.044
15,TGCCGTAGGG,1.04 ± 0.041
16,TTTACTAGGT,0.959 ± 0.026
17,TTTCGTTTTG,0.998 ± 0.016
18,TGGGGTATCT,1 ± 0.019
19,GTTGCTCTCA,1.01 ± 0.049
20,TTTTGGGTGT,1.02 ± 0.059
21,AAGAGAAAGT,0.998 ± 0.028
22,TTGTGTACCG,0.96 ± 0.048
23,CGAATGGGTT,0.965 ± 0.011
24,TTTGCGTTTT,1.01 ± 0.025
25,TTAATCTGCC,1.15 ± 0.025
26,GATTGTTGGA,1.02 ± 0.037

row,Sequence,switch fluorescence ratio
1,CGGTTTGCGG,0.982 ± 0.017
2,TGGCGAAGGA,1.018 ± 0.0019
3,GTTAGTACAG,1.01 ± 0.031
4,CTGGGTAATA,1.08 ± 0.047
5,CAGAAGTCTC,1 ± 0.014
6,ACATTAACTA,1.09 ± 0.019
7,GTTTGGCCGG,0.998 ± 0.03
8,GCTTTTGGCG,1.02 ± 0.021
9,TTGCTTCGGC,0.976 ± 0.04
10,GCGAGAATAT,1.03 ± 0.043
11,TATCCCTGTT,0.976 ± 0.013
12,GTGTGAGTTG,0.961 ± 0.022
13,GTGTTTAAA,0.962 ± 0.014
14,GGTTTGGGGG,0.997 ± 0.023
15,TCTGAAATTC,1.15 ± 0.055
16,CATCGATTGC,1.03 ± 0.013
17,TTATGTGATA,0.95571 ± 0.00088
18,AAGAGATAGT,1 ± 0.0076
19,TGGGAATTGT,1 ± 0.026
20,ATGTTTTTGC,1.04 ± 0.1
21,TCAACGGGAA,1.01 ± 0.014
22,TGAAGGCTTT,1.01 ± 0.052
23,AGGAGGGTTT,0.999 ± 0.032
24,ACATGACAGA,1.08 ± 0.038
25,TTGTTACAGA,1.004 ± 0.0078
26,GGCCAAGGAA,0.9812 ± 0.0074

row,Sequence,switch fluorescence ratio
1,GTTGGATTAA,1 ± 0.046
2,TGGTTTATGG,1.01 ± 0.02
3,TTGGGAGAAG,0.993 ± 0.051
4,CGCATAGGCT,1.11 ± 0.18
5,CAATAGCGGT,1.05 ± 0.02
6,AGAGAGGGTT,0.986 ± 0.019
7,CTGTGACAAT,1.04 ± 0.029
8,TGCTATGGGT,0.975 ± 0.023
9,CTGATGTTGT,1.0036 ± 0.00066
10,CATTTATGTG,0.978 ± 0.021
11,CAAGCGTTGT,1.03 ± 0.036
12,CATTTAAAGC,1 ± 0.018
13,CTCGTTTGAT,1 ± 0.026
14,TTTTGGGCAG,0.971 ± 0.013
15,AGAACGGGGC,1.02 ± 0.023
16,TCTGATGTTT,1.01 ± 0.021
17,TGGGTAAAGG,0.956 ± 0.015
18,AGTAAGGCTA,1 ± 0.051
19,TTGTTGGTGG,0.9856 ± 0.0066
20,ATACCTTATG,1 ± 0.029
21,GCGGGATGGC,1.007 ± 0.0087
22,TGGGAATTAA,0.979 ± 0.04
23,GGGGGTTAGA,1 ± 0.035
24,GTGTGCCGTG,1.01 ± 0.05
25,CGGGGGCGTT,1 ± 0.018
26,CTTTGGGGAC,1.055 ± 0.006

row,Sequence,switch fluorescence ratio
1,AGGGTACTTG,1 ± 0.03
2,TGGGGAACG,0.9595 ± 0.006
3,AACGATCGCT,1.04 ± 0.0082
4,TTTCGCCATG,0.995 ± 0.026
5,AGGGAGCGGT,1.026 ± 0.0063
6,CATCTATGGT,0.992 ± 0.01
7,GGGGAGTGCT,0.9872 ± 0.004
8,AAAAGGACTT,0.994 ± 0.002
9,TTTTCAAGAC,1.31 ± 0.28
10,TTCGTAAAAA,1.09 ± 0.089
11,AATTGACGTA,1.021 ± 0.0069
12,GTGAGTAGGG,0.989 ± 0.018
13,GAAGGAGCAA,2.54 ± 1.2
14,CGTCTTAGTT,0.993 ± 0.015
15,ATGATAGAAC,1.03 ± 0.015
16,CACTGGCCGA,1.035 ± 0.01
17,CGCTTAAGAG,1.02 ± 0.014
18,ATTCGCCTAG,0.987 ± 0.012
19,GCCTTGACAG,0.989 ± 0.025
20,AGGGGGAGCT,1.005 ± 0.0056
21,GAGGTGATAG,1.036 ± 0.0033
22,TTCAATGGCT,0.983 ± 0.046
23,AAAAAATCGT,1.02 ± 0.057
24,TGTATTTAGA,1.02 ± 0.032
25,TGTTAAATGT,1.005 ± 0.01
26,TTTTGCTCGT,1.14 ± 0.2

row,Sequence,switch fluorescence ratio
1,TGATGCGGAT,1.016 ± 0.0013
2,GGAAGTTGGG,0.98 ± 0.023
3,TCCGAGGGAT,2.25 ± 1.3
4,TAAAAGAAAA,1 ± 0.062
5,GTCAGTCTGA,0.9805 ± 0.003
6,GCGGGGTAGT,1.008 ± 0.0044
7,ATTGGTGGTT,1 ± 0.074
8,AGCGGTGGGA,1.02 ± 0.032
9,CGGATGGGAA,0.995 ± 0.024
10,TGGTCAGCTT,0.994 ± 0.017
11,AGCTTGTGAA,1.01 ± 0.011
12,GCTTCCCAGC,1.19 ± 0.032
13,CTACGTAATG,3.16 ± 0.27
14,AAGGATTCGC,1 ± 0.072
15,AAGGATGTTG,0.9998 ± 0.0017
16,TTGAGACTAG,1 ± 0.015
17,GAGTCACGTC,0.9468 ± 0.0088
18,GGCATGTGGT,1.0254 ± 0.001
19,AGATATGTTG,0.996 ± 0.012
20,AGTATGTTTC,1 ± 0.025
21,TCGTTGCGT,1.01 ± 0.0017
22,TTGATAGGCC,0.9998 ± 0.0049
23,TTTGGTTGAT,0.9967 ± 0.0087
24,TGCGTTAAAA,0.994 ± 0.042
25,CTTGCATTGA,1.08 ± 0.071
26,AAATATATTA,1.02 ± 0.016

row,Sequence,switch fluorescence ratio
1,TTCGTAGTGG,1 ± 0.013
2,TTCAAAGGGG,1.09 ± 0.24
3,TTTTATATTA,1 ± 0.04
4,ACGGGCGGGG,1.02 ± 0.021
5,TAAAAACTGG,0.975 ± 0.045
6,AAATATTGGG,0.98 ± 0.068
7,TTTTAGGGTC,1.11 ± 0.2
8,GGGATCGTTT,0.982 ± 0.046
9,GGGGAGAGAA,0.9855 ± 0.0071
10,CAAAAGGTTA,0.996 ± 0.011
11,GCAAGTCTGA,1.03 ± 0.019
12,GTGTGAGGTG,1 ± 0.03
13,GCGTAAGGGT,0.985 ± 0.012
14,GCCTTGGACG,1.041 ± 0.0076
15,TCCAAAATGG,1.09 ± 0.04
16,GAGTTGGTTT,1 ± 0.022
17,GGGGGTTTGC,0.991 ± 0.059
18,GGGTGATGGG,0.977 ± 0.032
19,TTATCGGACG,0.969 ± 0.084
20,TAGTGGGTTG,1 ± 0.021
21,TGAATCATGG,0.972 ± 0.022
22,ACGGGGGGAT,1.04 ± 0.089
23,TAGAAGGTGG,1.04 ± 0.073
